Results taken from article PMC10760953, “Somatic estrogen receptor α mutations that induce dimerization promote receptor activity and breast cancer proliferation” (The Journal of Clinical Investigation, 2024).

T1: S463P ERα ligand-binding domain (LBD)
T1 chain: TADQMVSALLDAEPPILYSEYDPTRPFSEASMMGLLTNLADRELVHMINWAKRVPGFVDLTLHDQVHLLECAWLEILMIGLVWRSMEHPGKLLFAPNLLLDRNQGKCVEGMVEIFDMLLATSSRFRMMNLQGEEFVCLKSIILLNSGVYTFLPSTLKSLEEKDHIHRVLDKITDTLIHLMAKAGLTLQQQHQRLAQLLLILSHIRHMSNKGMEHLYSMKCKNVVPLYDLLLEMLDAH


Assays:
[1] = molecular target: S463P ERα ligand-binding domain (LBD); assay: FRET or BRET; time-resolved FRET of dimer exchange: 2 nM ER-LBD labelled at C417 (biotin, streptavidin-terbium) mixed with 10 nM ER-LBD labelled at C530 (fluorescein); apo or exposed to 1 μM E2 for 30 minutes before mixing; signal followed with time
[2] = molecular target: the molecule itself; assay: cell-based or functional assay
[3] = molecular target: T1, S463P ERα ligand-binding domain (LBD); assay: tr-FRET dimer exchange; settings: chain shown with the change

Molecule	fold slower dissociation of dimers into monomers against WT ER, absence of E2 [1] [times]	other: t1/2 of dimer exchange ([3]; apo (no E2), parent: 7) [h]	other: t1/2 of dimer exchange ([3]; protein exposed to 1 μM E2 for 30 minutes before dimer exchange, parent: 101) [h]	estrogen-independent expression of GREB1 (RT-qPCR, fold change relative to WT), SKBR3 cells [2] [fold]	estrogen-independent expression of PGR (RT-qPCR, fold change relative to WT), SKBR3 cells [2] [fold]
HA-tagged ERα S463P (receptor, UniProt P03372 1-595, looked up) MTMTLHTKASGMALLHQIQGNELEPLNRPQLKIPLERPLGEVYLDSSKPAVYNYPEGAAYEFNAAAAANAQVYGQTGLPYGPGSEAAAFGSNGLGGFPPLNSVSPSPLMLLHPPPQLSPFLQPHGQQVPYYLENEPSGYTVREAGPPAFYRPNSDNRRQGGRERLASTNDKGSMAMESAKETRYCAVCNDYASGYHYGVWSCEGCKAFFKRSIQGHNDYMCPATNQCTIDKNRRKSCQACRLRKCYEVGMMKGGIRKDRRGGRMLKHKRQRDDGEGRGEVGSAGDMRAANLWPSPLMIKRSKKNSLALSLTADQMVSALLDAEPPILYSEYDPTRPFSEASMMGLLTNLADRELVHMINWAKRVPGFVDLTLHDQVHLLECAWLEILMIGLVWRSMEHPGKLLFAPNLLLDRNQGKCVEGMVEIFDMLLATSSRFRMMNLQGEEFVCLKSIILLNSGVYTFLPSTLKSLEEKDHIHRVLDKITDTLIHLMAKAGLTLQQQHQRLAQLLLILSHIRHMSNKGMEHLYSMKCKNVVPLYDLLLEMLDAHRLHAPTSRGGASVEETDQSHLATAGSTSSHSLQKYYITGEAEGFPATV	–	–	–	2.9	7.1
HA-ERα A430K/S463P double mutant (receptor, UniProt P03372 1-595, looked up) MTMTLHTKASGMALLHQIQGNELEPLNRPQLKIPLERPLGEVYLDSSKPAVYNYPEGAAYEFNAAAAANAQVYGQTGLPYGPGSEAAAFGSNGLGGFPPLNSVSPSPLMLLHPPPQLSPFLQPHGQQVPYYLENEPSGYTVREAGPPAFYRPNSDNRRQGGRERLASTNDKGSMAMESAKETRYCAVCNDYASGYHYGVWSCEGCKAFFKRSIQGHNDYMCPATNQCTIDKNRRKSCQACRLRKCYEVGMMKGGIRKDRRGGRMLKHKRQRDDGEGRGEVGSAGDMRAANLWPSPLMIKRSKKNSLALSLTADQMVSALLDAEPPILYSEYDPTRPFSEASMMGLLTNLADRELVHMINWAKRVPGFVDLTLHDQVHLLECAWLEILMIGLVWRSMEHPGKLLFAPNLLLDRNQGKCVEGMVEIFDMLLKTSSRFRMMNLQGEEFVCLKSIILLNSGVYTFLPSTLKSLEEKDHIHRVLDKITDTLIHLMAKAGLTLQQQHQRLAQLLLILSHIRHMSNKGMEHLYSMKCKNVVPLYDLLLEMLDAHRLHAPTSRGGASVEETDQSHLATAGSTSSHSLQKYYITGEAEGFPATV	–	–	–	0.4	0.2

The next lines start with results.

fold slower dissociation of dimers into monomers against WT ER, absence of E2 [1] [times]	other: t1/2 of dimer exchange ([3]; apo (no E2), parent: 7) [h]	other: t1/2 of dimer exchange ([3]; protein exposed to 1 μM E2 for 30 minutes before dimer exchange, parent: 101) [h]	Molecule	estrogen-independent expression of GREB1 (RT-qPCR, fold change relative to WT), SKBR3 cells [2] [fold]	estrogen-independent expression of PGR (RT-qPCR, fold change relative to WT), SKBR3 cells [2] [fold]
7.6	–	–	S463P ERα ligand-binding domain (LBD) (domain or fragment)	–	–
–	0.883	3.17	WT ERα ligand-binding domain (LBD) S463P (protein) TADQMVSALLDAEPPILYSEYDPTRPFSEASMMGLLTNLADRELVHMINWAKRVPGFVDLTLHDQVHLLECAWLEILMIGLVWRSMEHPGKLLFAPNLLLDRNQGKCVEGMVEIFDMLLATSSRFRMMNLQGEEFVCLKSIILLNSGVYTFLPSTLKSLEEKDHIHRVLDKITDTLIHLMAKAGLTLQQQHQRLAQLLLILSHIRHMSNKGMEHLYSMKCKNVVPLYDLLLEMLDAH	–	–
